From US20240084003A1 (SIMCERE ZAIMING PHARMACEUTICAL, published 2024) come the findings set out here.

Assay [1] concerns the target T1, human CD22-ECD-His protein (human, UniProt P20273 20-687).
T1 construct: Made in house in HEK293E; also called hCD22-ECD-His; recombinant human CD22-ECD His protein; not shown: His tag
T1 sequence: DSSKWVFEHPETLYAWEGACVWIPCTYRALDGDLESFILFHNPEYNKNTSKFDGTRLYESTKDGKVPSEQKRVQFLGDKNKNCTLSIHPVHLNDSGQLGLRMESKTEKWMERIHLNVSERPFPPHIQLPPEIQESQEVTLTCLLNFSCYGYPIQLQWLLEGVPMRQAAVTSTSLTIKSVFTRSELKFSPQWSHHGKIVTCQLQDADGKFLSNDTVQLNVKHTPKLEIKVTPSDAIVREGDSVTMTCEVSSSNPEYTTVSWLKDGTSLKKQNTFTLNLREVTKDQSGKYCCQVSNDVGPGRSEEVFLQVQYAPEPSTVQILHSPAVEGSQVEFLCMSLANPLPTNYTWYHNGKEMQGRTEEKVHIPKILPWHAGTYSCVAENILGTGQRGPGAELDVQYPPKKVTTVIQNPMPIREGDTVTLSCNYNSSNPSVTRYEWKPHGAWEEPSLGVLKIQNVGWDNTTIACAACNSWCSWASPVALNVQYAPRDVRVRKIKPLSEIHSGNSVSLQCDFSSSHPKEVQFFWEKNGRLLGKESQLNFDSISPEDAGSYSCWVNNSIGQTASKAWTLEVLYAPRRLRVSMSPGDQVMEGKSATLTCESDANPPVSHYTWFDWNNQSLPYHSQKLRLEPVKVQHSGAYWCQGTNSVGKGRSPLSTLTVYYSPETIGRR
Description: ELISA, Ab 0.001 nM. The method, boiled down:
(§1)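 After overnight 4 °C coating with 2 μg/mL CD22-ECD-His and 2 h BSA blocking, wells received antibody, then HRP conjugate (each 2 h, 37 °C). Signal came from TMB, 30 min at room temperature, acid-stopped.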
A general note: ELISA stands for enzyme-linked immunosorbent assay.

Assay [2] has as its target T1, human CD22-ECD-His protein. Kind of assay: ELISA, Ab 0.0001 nM. The method, boiled down:
as §1

Assay [3] addresses T1, human CD22-ECD-His protein. Description: ELISA, human CD22-ECD-His coated. An outline of the steps:
as §1

In assay [4] the target is T2, monkey CD22 protein (ACROBiosystems, SI2-R52Ha) (monkey (rhesus monkey in paragraph 148), UniProt H9G1X2 18-686).
T2 construct: extracellular domain; also called monkey CD22-ECD; monkey CD22-ECD-His
T2 sequence: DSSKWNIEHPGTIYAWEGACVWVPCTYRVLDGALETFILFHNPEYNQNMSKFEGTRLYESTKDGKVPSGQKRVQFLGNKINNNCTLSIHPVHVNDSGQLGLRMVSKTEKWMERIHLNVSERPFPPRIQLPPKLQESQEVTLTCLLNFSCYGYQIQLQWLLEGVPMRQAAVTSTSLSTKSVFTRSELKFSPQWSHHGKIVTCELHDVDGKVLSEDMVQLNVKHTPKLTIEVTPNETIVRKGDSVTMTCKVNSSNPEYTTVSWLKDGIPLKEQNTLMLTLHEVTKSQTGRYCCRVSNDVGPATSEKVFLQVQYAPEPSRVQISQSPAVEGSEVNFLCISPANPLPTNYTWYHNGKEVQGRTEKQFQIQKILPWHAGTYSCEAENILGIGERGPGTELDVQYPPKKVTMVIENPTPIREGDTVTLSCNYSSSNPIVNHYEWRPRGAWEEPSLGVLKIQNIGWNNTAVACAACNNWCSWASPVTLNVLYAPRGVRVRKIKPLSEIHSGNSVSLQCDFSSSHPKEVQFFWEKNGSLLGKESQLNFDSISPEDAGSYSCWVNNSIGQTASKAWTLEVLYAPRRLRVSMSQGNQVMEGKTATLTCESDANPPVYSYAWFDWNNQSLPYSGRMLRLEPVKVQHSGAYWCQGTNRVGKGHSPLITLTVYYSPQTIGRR
Description: ELISA, monkey CD22-ECD-His coated. An outline of the steps:
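Plates were coated overnight at 4° C with 2 μg/mL CD22 protein in PBS and blocked with PBS + 2% BSA. Chimeric antibodies were incubated for 2 h at 37° C, then HRP-labelled secondary for 2 h at 37° C. Bound antibody was read by TMB colour development (30 min, RT) stopped with 1.0 N HCl.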

For assay [5], the target named is T3, human CD22 domain1-4-His (human, UniProt P20273 20-425).
T3 construct: also called hCD22 domain1-4-His; not shown: His tag
T3 sequence: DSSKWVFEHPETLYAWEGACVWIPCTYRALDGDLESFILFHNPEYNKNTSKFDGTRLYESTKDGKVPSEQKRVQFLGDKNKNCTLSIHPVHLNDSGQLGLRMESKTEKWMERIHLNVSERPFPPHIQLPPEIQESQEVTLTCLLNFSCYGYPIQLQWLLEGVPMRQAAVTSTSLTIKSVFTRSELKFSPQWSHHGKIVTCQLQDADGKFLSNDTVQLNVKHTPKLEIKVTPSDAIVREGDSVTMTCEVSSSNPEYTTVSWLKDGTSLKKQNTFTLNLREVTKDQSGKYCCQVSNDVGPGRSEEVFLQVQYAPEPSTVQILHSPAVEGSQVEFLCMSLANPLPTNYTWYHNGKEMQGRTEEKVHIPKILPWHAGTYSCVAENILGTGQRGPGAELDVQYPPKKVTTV
Kind of assay: ELISA, human CD22 domain1-4-His coated.

B1: F2.70.2 (antibody, human IgG1, lambda, V domains shown)
VH: EVQLVESGGGLVKPGGSLKLSCAASGFTFSDYGMNWFRQAPEKGLEWVAYISRGSHTIYYADTVKGRFTISRDNAKNTLFLQMTSLRSNDTAMYYCVRMAGYYAMDYWGQGTSVTVSS
VL: QLVLTQSSSASFSLGASAKLTCTLSSQHSSYIIEWYQQQPLKPPKYVMELKKDGSHSTGDGIPDRFSGSSSGADRYLSISNIQPEDEAIYICGVGDTIKEQFVYVFGGGTKVTVLG
notes: Human-murine chimeric IgG1, lambda
For orientation: EC50 (read off the curve) means the concentration giving half of the maximal effect. As to B1, the OD450 is 0.57 OD450 in assay [1] and 0.18 OD450 in assay [2]. The concentration for a half-maximal effect (EC50 (read off the curve)) in assay [3] and in assay [5] was about 0.03 nM in each case. In assay [4], the binding result is given as “no binding (tested: 100 nM)”.

B2: F2.104.10 (antibody, human IgG1, lambda, V domains shown)
VH: EVQLVESGGGFVKPGGSLKLSCAASGFTFSDYGMNWFRQAPEKGLEWVAYISRGSHTIYYADTVKGRFTISRDNAENTLFLQMTSLRSNDTAMYYCVRMAGYYAMDYWGQGTSLTVSS
VL: QLVLTQSSSASFSLGASAKLTCTLSSQHSSYIIEWYQQQPLKPPKYVMEVKKDGSHSTGDGIPDRFSGSSSGADRYLSISNIQSEDEAIYICGVGDTIKEQFVYVFGGGTKVTVLG
notes: as for B1
On to B2, for which the figures for the OD450 in assay [1] and in assay [2] were 0.66 OD450 and 0.32 OD450, respectively. For the same molecule, the “EC50 (read off the curve)” value was about 0.03 nM in assay [3] and about 0.04 nM in assay [5]. In assay [4], the binding result is “no binding (tested: 100 nM)”.

B3: F1.17.1 (antibody, human IgG1, kappa, V domains shown)
VH: QVQLKESGPGLVAPSQSLSITCTVSGFSLSRYTVHWVRQPPGKGLEWLGMIWGGGSTDYNSALKSRLSISKDNSKSQVFLKMNSLQTDDTAMYYCARPHDFDAGGFAYWGQGTLVTVSA
VL: QIVLTQSPAILSTSPGEKVTMTCSASSRVNYMYWYQQKPGSSPRLLIYDTSNLASGVPVRFSGSGSGTSYSLTISRMEAEDAATYYCQQWTSYPLTFGAGTKLELKR
notes: Human-murine chimeric IgG1, kappa
In the case of B3, the OD450 came to 0.75 OD450 in assay [1] and 0.2 OD450 in assay [2]. Besides, the “EC50 (read off the curve)” value in assay [3] was about 0.03 nM; in assay [4], about 0.02 nM; in assay [5], about 0.1 nM.

B4: F2.205.9 (antibody, human IgG1, lambda, V domains shown)
VH: QVTLKESGPGILQPSQTLSLTCSFSGFSLSTSGMGVGWIRQPSGKGLEWLAHIWWDDDEYYNPALKSRLTISKDTSKNQVFLKIANVDTADTATYYCARISIPYGYYDWFFDVWGTGTTVTVSA
VL: QAVVTQESALTTSPGETVTLTCRSSTGAVTTRNYANWVQEKPDHLFTGLIGGTNNRAPGVPARFSGSLIGDKAALTITGAQTEDEAIYFCALWYSNHFIFGSGTKVTVLG
notes: as for B1
As to B4, the figures for the OD450 in assay [1] and in assay [2] were 0.4 OD450 and 0.24 OD450, respectively. For the same molecule, the “EC50 (read off the curve)” value in assay [3] was about 0.06 nM; in assay [4] it was about 0.03 nM; in assay [5] it was about 0.04 nM.

B5: F1.245.2 (antibody, human IgG1, kappa, V domains shown)
VH: EVQLQQSGAELVKPGASVKLSCTGSGFNIKDYYIHWVKQRTEQGLEWMGRIDPEDGETEYAPKFQDEATITSDTSSNTAYLQLSSLTYEDTAVYYCAREAAGYFYRGSSYGYFDVWGTGTTVTVSS
VL: DFQMTQTTSFLSASLGDRVTISCSASQDISNYLNWYQQKPDGTVKLLIYYTSSLHSGVPSRFSGSGSGTDYSLTISNLEPEDIATYYCQQYSMLPYTFGGGTKLEMER
notes: as for B3
B5: the OD450 in assay [1] amounted to 1.24 OD450; in assay [2], 0.44 OD450. Moreover, the “EC50 (read off the curve)” value in assay [3] is about 0.01 nM; in assay [5] it was about 0.02 nM. Further, in assay [4], the binding result was “no binding (tested: 100 nM)”.

B6: F2.55.1 (antibody, human IgG1, lambda, V domains shown)
VH: QVTLKESGPGILQPSQTLSLTCSFSGFSLSTFPLGVGWIRQPSGKGLEWLAHVWWNDDDYYNPALKSRLTISKDTSNTRVFLSVASVDTAETATYYCARLNWDRWYFDVWGTGTTVTVSS
VL: QLVLTQSSSASFSLGASAKLTCTLSSQHSAYTVEWYQQQPLKPPKYVMELKKDGSHSTGDGIPDRFSGSSSGADRYLSISNIQPEDEAIYICGVGDTVKEQFVFGGGTKVTVLG
notes: as for B1
B6: the OD450 in assay [1] is 0.44 OD450; in assay [2], 0.23 OD450. The results for the “EC50 (read off the curve)” value in assay [3], in assay [4] and in assay [5] were about 0.06 nM, about 0.1 nM and about 0.1 nM, respectively.

B7: F1.216.2 (antibody, human IgG1, kappa, V domains shown)
VH: QVQLQQSGPEVVRPGASVKISCKASGYAFSSSWMNWMKQRPGKALEWIGRIYPGDGDTNYSGEFKVKATLTADKSSSTAYMQLSSLTSEDSAVYFCAREGSYYSNPWYFDYWGQGTTLTVSS
VL: DVLVTQTPLSLPVSLGDQASISCRSSQSIVQSNGDTYLEWYLQKPGQSPKLLIYKVSNRFSGVPDRFSGSGSGTDFTLKISRVEAEDLGVYYCFQGSHVPFTFGSGTKLEIKR
notes: as for B3
Regarding B7, the OD450 was determined as 1.71 OD450 in assay [1] and 0.45 OD450 in assay [2]. Moreover, the “EC50 (read off the curve)” value is about 0.006 nM in assay [3], about 0.01 nM in assay [4] and about 0.02 nM in assay [5].

B8: F1.200.11 (antibody, human IgG1, kappa, V domains shown)
VH: QNQLVQSGPELKKPGETVKISCKASGYTFTTAGMQWVQKMPGKGFKWIGWINTLSGEPKYAEDFKGRFAFSLETSATTAYLQISNLKNEDTATYFCARAYYSNLYWYFDVWGTGTTVTVSS
VL: DIVMTQSQKFMSTTVGDRVTITCKASQNVVTAVAWYQQKPGQSPKVLIYSASNRYSGVPDRFTGSGSGTDFTLTISNMHSEDLANYFCHQYSSYPFTFGSGTKLEIKR
notes: as for B3
Consider B8, for which the OD450 was 0.85 OD450 in assay [1] and 0.51 OD450 in assay [2]. Further, the “EC50 (read off the curve)” value in assay [3] was about 0.03 nM; in assay [4], about 1 nM. Also, the binding result in assay [5] is recorded as “no binding (tested: 100 nM)”.

B9: F1.120.15 (antibody, human IgG1, kappa, V domains shown)
VH: QVQLQQSGPELVKPGASVKISCKASGNAFSNSWMNWVKQRPGKGLEWIGRVYSEDGDTQYNGKFRDKATLTADRSTSTAYMQLSSLTSEDSAVYFCARWLIYYGTYGAMDYWGQGTSVTVSS
VL: DIQMTQTTSSLSASLGDRVTISCRASQDINNYLNWYHQKPDGTVKLLIYFTSRPYSGVPSRFSGSGSGTDYSLTISNLEQEDIATYFCQQGNTLPWTFGGGTKLEIKR
notes: as for B3
As for B9, the OD450 in assay [1] was found to be 1.21 OD450; in assay [2], 0.42 OD450. Besides, the “EC50 (read off the curve)” value is about 0.02 nM in assay [3], about 0.2 nM in assay [4] and about 0.2 nM in assay [5].
